Measurements reported in patent US20160115247A1, “SINGLE DOMAIN ANTIBODIES DIRECTED AGAINST INTRACELLULAR ANTIGENS” (SINGH BIOTECHNOLOGY, LLC, priority 2014, published 2016).
Values joined by “and” are separate entries in the source; they are usually repeats but may differ in a detail not shown here. Equal values may be shown once.

Legend:
MDA-MB-231 cells = assay: MTT proliferation assay, MDA-MB-231; format: cell-based, human;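 note: human cancer cells kept at 37 °C in humidified 5% CO2, with treated groups compared against a vehicle control group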
PANC-1 cells = assay: MTT proliferation assay, PANC-1; format: cell-based, human; details: for Mean Absorbance (570 nM) ± S.E.: single experiments 1-3
TNF-alpha = target: T1, TNF-alpha (Homo sapiens, UniProt P01375); assay: Inhibition of TNF-alpha cytotoxicity in U937 cells; format: cell-based; details: constant dose of TNF-alpha at EC50; for inhibition of killing of U937 by TNF-alpha (in words): FIG. 14
T1 construct: host or cells: added to U937 cells
T1 sequence (P01375 77-233 limits assumed): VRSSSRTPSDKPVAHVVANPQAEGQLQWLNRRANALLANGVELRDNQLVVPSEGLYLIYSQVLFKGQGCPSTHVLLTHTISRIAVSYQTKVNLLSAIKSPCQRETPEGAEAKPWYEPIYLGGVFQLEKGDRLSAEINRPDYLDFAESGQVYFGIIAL

B1: B.VHH14: anti-STAT3 single-domain antibody VHH14, SEQ ID NO. 4 (protein)
VHH: QVQLVESGGGSVQAGGSLRLSCVASTYTGCMGWFRQAPGKEREGVAALSSRGFAGHYTDSVKGRFSISRDYVKNAVYLQMNTVKPEDAAMYYCAAREGWECGETWLDRTAGGHTYWGQGTLVTVSS
modifications: camelid
MDA-MB-231 cells; 3 days of treatment, 10.0 μg/ml
  % Inhibition of cell proliferation: 23.1%
MDA-MB-231 cells; 3 days of treatment, 100.0 μg/ml
  % Inhibition of cell proliferation: 57.0%
MDA-MB-231 cells; 5 days of treatment, 0.5 μg/ml
  % Inhibition of cell proliferation: 0%
MDA-MB-231 cells; 5 days of treatment, 1.0 μg/ml
  % Inhibition of cell proliferation: 0%
MDA-MB-231 cells; 5 days of treatment, 10.0 μg/ml
  % Inhibition of cell proliferation: 5.5%
MDA-MB-231 cells; 5 days of treatment, 100.0 μg/ml
  % Inhibition of cell proliferation: 18.9%
MDA-MB-231 cells; Day 3 post treatment, 0.5 μg/ml
  Mean Absorbance (570 nM) ± S.E.: 0.666 ± 0.022
MDA-MB-231 cells; Day 3 post treatment, 1.0 μg/ml
  Mean Absorbance (570 nM) ± S.E.: 0.644 ± 0.045
MDA-MB-231 cells; Day 3 post treatment, 10.0 μg/ml
  Mean Absorbance (570 nM) ± S.E.: 0.456 ± 0.048
MDA-MB-231 cells; Day 3 post treatment, 100 μg/ml
  Mean Absorbance (570 nM) ± S.E.: 0.255 ± 0.005
MDA-MB-231 cells; Day 5 post treatment, 0.5 μg/ml
  Mean Absorbance (570 nM) ± S.E.: 0.733 ± 0.038
MDA-MB-231 cells; Day 5 post treatment, 1.0 μg/ml
  Mean Absorbance (570 nM) ± S.E.: 0.794 ± 0.023
MDA-MB-231 cells; Day 5 post treatment, 10.0 μg/ml
  Mean Absorbance (570 nM) ± S.E.: 0.640 ± 0.011
MDA-MB-231 cells; Day 5 post treatment, 100 μg/ml
  Mean Absorbance (570 nM) ± S.E.: 0.549 ± 0.023
MDA-MB-231 cells; Table 6, Day 3, 10.0 μg/ml
  Mean Absorbance (570 nM) ± S.E., Overall Mean: 0.504 ± 0.021
MDA-MB-231 cells; Table 6, Day 3, 10.0 μg/ml, single experiments 1-4
  Mean Absorbance (570 nM) ± S.E.: 0.456 ± 0.048 and 0.499 ± 0.018 and 0.502 ± 0.048 and 0.559 ± 0.041
MDA-MB-231 cells; Table 6, Day 3, 100 μg/ml
  Mean Absorbance (570 nM) ± S.E., Overall Mean: 0.302 ± 0.043
MDA-MB-231 cells; Table 6, Day 3, 100 μg/ml, single experiments 1-4
  Mean Absorbance (570 nM) ± S.E.: 0.255 ± 0.005 and 0.357 ± 0.019 and 0.308 ± 0.021 and 0.287 ± 0.021
MDA-MB-231 cells; Table 7, Day 5, 10.0 μg/ml
  Mean Absorbance (570 nM) ± S.E., Overall Mean: 0.688 ± 0.131
MDA-MB-231 cells; Table 7, Day 5, 100 μg/ml
  Mean Absorbance (570 nM) ± S.E., Overall Mean: 0.475 ± 0.0690
MDA-MB-231 cells; post 3 days, 10.0 μg/ml
  Overall Average % Inhibition: 26.2%
MDA-MB-231 cells; post 3 days, 10.0 μg/ml, single experiments 1-4
  Mean Growth Inhibition: 23.1% and 20.0% and 38.5% and 23.3%
MDA-MB-231 cells; post 3 days, 100 μg/ml
  Overall Average % Inhibition: 55.7%
MDA-MB-231 cells; post 3 days, 100 μg/ml, single experiments 1-4
  Mean Growth Inhibition: 57.0% and 42.8% and 62.3% and 60.6%
MDA-MB-231 cells; post 5 days, 10.0 μg/ml
  Overall Average % Inhibition: 14.9%
MDA-MB-231 cells; post 5 days, 100 μg/ml
  Overall Average % Inhibition: 38.6%

B2: H.VHH14: anti-STAT3 sdAb VHH14, SEQ ID NO. 4 (protein)
VHH: QVQLVESGGGSVQAGGSLRLSCVASTYTGCMGWFRQAPGKEREGVAALSSRGFAGHYTDSVKGRFSISRDYVKNAVYLQMNTVKPEDAAMYYCAAREGWECGETWLDRTAGGHTYWGQGTLVTVSS
modifications: camelid
PANC-1 cells; Day 3, 10.0 μg/ml
  Mean Absorbance (570 nM) ± S.E., Overall Mean: 1.089 ± 0.085
  Mean Absorbance (570 nM) ± S.E.: 0.920 ± 0.133 and 1.183 ± 0.114 and 1.163 ± 0.044
PANC-1 cells; Day 3, 100 μg/ml
  Mean Absorbance (570 nM) ± S.E., Overall Mean: 0.906 ± 0.054
  Mean Absorbance (570 nM) ± S.E.: 0.808 ± 0.239 and 0.993 ± 0.088 and 0.916 ± 0.088
PANC-1 cells; Day 5, 10.0 μg/ml
  Mean Absorbance (570 nM) ± S.E., Overall Mean: 1.368 ± 0.247
  Mean Absorbance (570 nM) ± S.E.: 1.859 ± 0.033 and 1.165 ± 0.015 and 1.081 ± 0.103
PANC-1 cells; Day 5, 100 μg/ml
  Mean Absorbance (570 nM) ± S.E., Overall Mean: 0.754 ± 0.333

B3: anti-TNF-alpha VHH62: anti-TNF-alpha sdAb, SEQ ID NO. 47 (protein)
VHH: QVQLVESGGGPVQAGETLRLSCTASGFTFAEADMGWYRQAPGHECELVSTITTEGITSEASSYYADSVRGRFTISRDNAKNMVYLQMNSLKPEDTAVYYCAPDPYAYSTYSDYCSWAQGTQGTLVTVSS
modifications: camelid
TNF-alpha
  IC50 (inhibition of TNF-alpha cytotoxicity against U937): approximately 713.6 ug/ml
  inhibition of killing of U937 by TNF-alpha (in words): inhibit killing of U937 by TNF-alpha

B4: anti-TNF-alpha VHH69: anti-TNF-alpha sdAb, SEQ ID NO. 46 (protein)
VHH: EVQLVESGGGSVLAGGSLRLSCVASGFTSRYNYMAWFRQAPGKEREGVATIGTASGSADYYGSVKDRFTISQDNAKNTVYLQMNSLKPEDTAMYYCAARTYGTISLTPSDYRYWGQGTLVTVSS
modifications: camelid
TNF-alpha
  IC50 (inhibition of TNF-alpha cytotoxicity against U937): greater than 208.055 ug/ml
  inhibition of killing of U937 by TNF-alpha (in words): inhibit killing of U937 by TNF-alpha
